From article PMC4703387, “Identification of the Calmodulin-Binding Domains of Fas Death Receptor” (PLoS ONE, 2016)

Target: T1, calmodulin, calcium-bound (Ca2+/CaM) (UniProt P0DP23 1-149)
T1 construct: all experiments in the presence of calcium; Used unlabelled or 15N/13C-labelled; also called full-length Ca^2+/CaM
Assay: NMR titration; 2D 1H-15N HSQC; unlabelled peptide titrated into 15N-labelled Ca2+/CaM, Ca2+/CaM-N or Ca2+/CaM-C (100-150 uM), 35°C, 50 mM Tris-d11 pH 7.0, 100 mM NaCl, 5 mM CaCl2; Kd by one-site fit of chemical shift changes
Settings: both partners purified

binding result: binds
B1: FasDD(224-238) peptide (peptide)
peptide: MTLSQVKGFVRKNGV
notes: also called FasDD(228–238); source: synthetic peptide, bought: Genscript (>95% purity)
